# From patent US20200079876A1 (BIOVERATIV USA, published 2020)
# Positions count from the first letter of the chain named.
# B1: antibody IPN-M9 (antibody, V domains shown)
# VH: QVQLQQPGAELVRPGASVKLSCKVSGYTFTRYWMHWVKQRPGQGLEWIGEINPSNSDTDYNEEFKSKATLTVDKSSSTAYMHLSSLTSEDSAVYYCTIDDSAYGWFAYWGQGTLVTVSA
# VL: DIVMTQSPAIMSASPGERVTMTCSASSSISYMHWYHQKPGTSPKRWIYDTSKLASGVPARFSGSGSGTSYSLTISSMEAEDAATYYCHQRSSFPTFGAGTKLELK
# notes: Mouse monoclonal antibody (NZBW hybridoma)
# B2: antibody IPN-M33 (antibody, V domains shown)
# VH: QVKLQQSGPELVKPGTSVRISCKTSGYSFTGYYMHWVKQSPEKSLEWIGEINPSIGDITYNQRFKAKATLTVDKSSSTAYMQLKSLTSEDSAVYYCASDYYGGGFAWFAYWGQGTLVTVSA
# VL: B1 VL with P15S, R18K, S30N, H36Q, A82T, S92D, F93S, P94L, A98S, L104I
# notes: as for B1
# B3: antibody IPN-M29 (antibody, V domains shown)
# VH: EVQLQQSGPELVKPGASVKISCKASGYSFTGFYMQWVKQSPEKNLEWIGEINPTTGDETYNQKFQAKATLTVDKSSSTAYMQLKSLTSEDSAVYFCASDFYDGSFAWFEYWGKDYLTVSA
# VL: B1 VL with M4L, A9V, R18K, M32I, H36Q, F93Y, P94L, A98S, L104I
# notes: as for B1
# B4: antibody IPN-M24 (antibody, V domains shown)
# VH: EVKLQQSGAELVRPGVSVKISCKVSGYTFTDYAMHCVKQSHAKSLEWIGVISIYNGDASYNQKFKDKATMTVDKSSSTSYMDLARLTSEESAVYNCVREAPYLITTVFYAMDYWGQGTSVTVSS
# VL: B1 VL with R18K, S26N, H36Q, A59T, S92F, F93Y, P94L, A98S, L104I
# notes: as for B1
# B5: antibody IPN-M10 (antibody, V domains shown)
# VH: B1 VH with A102V
# VL: B1 VL with M4I
# notes: as for B1
# B6: antibody IPN-M23 (antibody, V domains shown)
# VH: B1 VH with A102V
# VL: B1 VL with S12F, H33P, H36P, T41P, S66F, S69F, T84P, T95P
# notes: as for B1
# B7: antibody IPN-M27 (antibody, V domains shown)
# VH: B1 VH with P7S, S85N
# VL: B1 VL with M4L, P8T, T73A
# notes: as for B1
# B8: antibody IPN-M18 (antibody, V domains shown)
# VH: EVQLQQSGPELVKPGASVKISCKASGYSFTGYYIHWVKQSPEKSLEWIGEINPTTNDTTYNQKFKAKATLTVDKSSNTAYMQLKSLTSEDSAVYYCSRDISGPAWFAYWGQGTLVTVSA
# VL: DIVLTQTTAIMSASPGEKVTMTCSASSSISYMYWFQQKPGTSPKRWIYDTSKLASGVPARFSGSGSGTSYSLTISTMEAEDAATYYCHQRSSDPTFGGGTKLEINR
# notes: as for B1
# B9: antibody IPN-M1 (antibody, V domains shown)
# VH: EVQLQQSGAELVRPGASVKLSCTASGFNIKDDYIHWVKQRPEQGLEWIGRIDPADDHTKYAPKFQDKATMTADTSSNTACLQLNSLTSEDTAVYYCAIYGSGWAWFPYWGQGTLVSVSA
# VL: DIVLTQSTDYLAVSLGQRATISCKASQSVDYDGDSYMNWYQQKPGQPPKLLIYAASNLESGIPARFSGSGSGTDFTLNIHPVEEEDAATYYCQQSNEDPWTFGGGTKLEIK
# notes: Mouse monoclonal antibody (NZBW hybridoma); of the 17, thirteen were IgG2a, one IgG2b, three IgG1; Same VL and VH as IPN-M3 and IPN-M13
# B10: antibody IPN-M8 (antibody, V domains shown)
# VH: EVKLQQSGAELVRPGASVKLSCTASGFNIKDDYIHWVKQRPEQGLEWIGRIDPADGHTKYAPKFQVKATITADTSSNTAYLQLSSLTSEDTAVYYCARYGYGREVFDYWGQGTTLTVSS
# VL: B9 VL with T8P, D9A, Y10S, P44T, L50I, A54D, T89I
# notes: Mouse monoclonal antibody (NZBW hybridoma); Same VL and VH as IPN-M2
# B11: antibody IPN-M2 (antibody, V domains shown)
# VH: B10 VH
# VL: B9 VL with T8P, D9A, Y10S, P44T, L50I, A54D, T89I
# notes: Mouse monoclonal antibody (NZBW hybridoma); Same VL and VH as IPN-M8
# B12: antibody IPN-M15 (antibody, V domains shown)
# VH: B9 VH with Q3K, Q5E
# VL: B9 VL with D1F, I2A, V3L, L4M, A64T, S71F, T106P
# notes: as for B1
# B13: antibody IPN-M3 (antibody, V domains shown)
# VH: B9 VH
# VL: B9 VL
# notes: Mouse monoclonal antibody (NZBW hybridoma); Same VL and VH as IPN-M1 and IPN-M13
# B14: antibody IPN-M14 (antibody, V domains shown)
# VH: B10 VH
# VL: DIVLTQFPTFLAVFLGQRAPISCKASQSVDYDGDSYMNWFQQKTGQPPKILIYDASNLEFGIPTRFSGSGFGTDFPLNIHPVEEEDAAIYFCQQSNEDPWTFGGGPKLEIK
# notes: as for B1
# B15: antibody IPN-M28 (antibody, V domains shown)
# VH: B9 VH
# VL: B9 VL with S7T, T8P
# notes: as for B1
# Columns and labels:
# [1] = target: T1, recombinant human complement component C1s (rhC1s) (human, UniProt P09871 16-688); assay: cell-based or functional assay
# T1 sequence (looked up): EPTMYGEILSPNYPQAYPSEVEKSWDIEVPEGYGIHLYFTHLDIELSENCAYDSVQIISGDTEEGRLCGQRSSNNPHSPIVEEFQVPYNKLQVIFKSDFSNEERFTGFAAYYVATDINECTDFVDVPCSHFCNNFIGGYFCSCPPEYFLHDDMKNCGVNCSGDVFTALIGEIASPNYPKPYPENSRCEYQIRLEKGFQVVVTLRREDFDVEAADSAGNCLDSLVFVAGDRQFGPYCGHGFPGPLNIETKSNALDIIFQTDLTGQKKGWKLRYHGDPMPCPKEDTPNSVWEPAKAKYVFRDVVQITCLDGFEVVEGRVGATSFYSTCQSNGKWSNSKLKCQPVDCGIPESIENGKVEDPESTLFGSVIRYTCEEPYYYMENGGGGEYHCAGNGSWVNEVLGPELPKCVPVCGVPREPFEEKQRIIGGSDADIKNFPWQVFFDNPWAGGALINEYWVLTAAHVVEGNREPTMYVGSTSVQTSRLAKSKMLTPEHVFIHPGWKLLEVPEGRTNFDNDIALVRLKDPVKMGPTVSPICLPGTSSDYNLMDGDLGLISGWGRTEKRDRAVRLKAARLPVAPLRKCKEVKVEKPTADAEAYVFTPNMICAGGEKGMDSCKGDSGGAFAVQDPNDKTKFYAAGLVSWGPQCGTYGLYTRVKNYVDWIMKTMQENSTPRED
# [2] = target: T2, purified human activated C1s protein, two-chain form (Homo sapiens, UniProt P09871 16-688); assay: bio-layer interferometry (BLI), kinetic analysis
# T2 construct: Purified protein bought from EMD Millipore; Biotin-labeled in the clone screen; also called active C1s; native C1s protein
# T2 sequence: T1 sequence (looked up)
# Pro-C1s = target: T3, Pro-C1s; assay: bio-layer interferometry (BLI), kinetic analysis
# T3 construct: also called purified pro-C1s protein
# T3 chain: T1 sequence (looked up)
# [3] = target: T1, recombinant human complement component …; assay: cell-based or functional assay; remark: listed apart in the source
Binder,"Inhibition of C1s Protease Activity (%), single point with clone supernatant, relative to 100 nM nafamostat [1] [%]",Kd [2] [nM],koff [2] [s⁻¹],kon [2] [M⁻¹ s⁻¹],Kd (Pro-C1s) [nM],koff (Pro-C1s) [s⁻¹],kon (Pro-C1s) [M⁻¹ s⁻¹],inhibition of C1s protease activity (relative to nafamostat) [3] [%]
B1,69,0.608,0.000361,594000,4.69,0.000299,63700,> 50
B2,97,0.329,0.000154,467000,0.3,2.52e-05,83800,> 50
B3,73,1.28,0.000594,463000,5.55,0.000408,73600,> 50
B4,68,1.01,0.000499,492000,4.46,0.00036,80800,> 50
B5,67,0.607,0.000369,608000,7.98,0.000339,42500,> 50
B6,74,0.57,0.000353,619000,7.17,0.000347,48400,> 50
B7,64,0.593,0.000394,664000,11.1,0.000283,25400,> 50
B8,68,1.98,0.00102,517000,1.89,0.000395,209000,> 50
B9,79,0.26,0.000213,817000,92.5,0.000392,4120,> 50
B10,100,0.213,0.000234,1.12e+06,19.7,0.000178,9080,> 50
B11,100,0.291,0.000279,957000,42.3,0.000197,4660,> 50
B12,100,0.172,0.000149,858000,3.37,0.000194,57500,> 50
B13,89,0.187,0.000158,845000,102,0.00041,4040,> 50
B14,100,0.207,0.000231,1.12e+06,13.5,0.000223,16500,> 50
B15,92,0.236,0.000215,914000,16.7,0.000178,10600,> 50
